Experimental data taken from PMC5779224 (2017).
Substitutions are numbered along the chain they refer to.

Columns and labels:
[1] = target: T1, AnkG 38–855 (AnkG MBD-AI-c protein; MBD + partial AI-c) (rat, UniProt O70511-1 38-855); experiment: ITC; two sites
T1 chain: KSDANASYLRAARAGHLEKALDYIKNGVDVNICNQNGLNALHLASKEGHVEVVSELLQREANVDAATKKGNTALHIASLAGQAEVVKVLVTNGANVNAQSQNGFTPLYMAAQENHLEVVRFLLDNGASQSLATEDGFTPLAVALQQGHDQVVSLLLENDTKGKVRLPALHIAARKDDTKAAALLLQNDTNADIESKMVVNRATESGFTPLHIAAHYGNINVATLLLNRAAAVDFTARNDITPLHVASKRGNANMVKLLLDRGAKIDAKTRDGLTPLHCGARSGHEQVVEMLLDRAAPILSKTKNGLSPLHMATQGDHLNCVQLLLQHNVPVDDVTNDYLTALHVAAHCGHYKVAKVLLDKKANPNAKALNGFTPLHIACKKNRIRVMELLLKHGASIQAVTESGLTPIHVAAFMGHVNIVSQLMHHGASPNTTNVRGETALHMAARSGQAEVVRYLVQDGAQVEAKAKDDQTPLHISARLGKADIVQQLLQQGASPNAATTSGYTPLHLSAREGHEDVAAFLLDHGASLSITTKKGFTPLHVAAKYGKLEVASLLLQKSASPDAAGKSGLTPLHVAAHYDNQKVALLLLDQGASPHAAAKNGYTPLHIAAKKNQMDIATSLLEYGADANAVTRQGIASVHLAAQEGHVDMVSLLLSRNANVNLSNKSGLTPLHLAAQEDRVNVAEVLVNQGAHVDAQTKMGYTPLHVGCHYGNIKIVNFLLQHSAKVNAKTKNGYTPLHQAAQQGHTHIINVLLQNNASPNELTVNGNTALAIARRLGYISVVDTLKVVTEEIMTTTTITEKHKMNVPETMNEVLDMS

[2] = target: T2, AnkG_MBD 'site-2' mutant (Ile277Gln, Leu310Gln) (rat, UniProt O70511-1 38-855, Ile277Gln | Leu310Gln); experiment: ITC
T2 sequence: T1 chain with I240Q, L273Q

[3] = target: T1, AnkG 38–855 (AnkG MBD-AI-c protein; MBD …); experiment: ITC
[4] = target: T3, AnkG_MBD 'site-1' mutant (Phe141Gln, Phe164Gln) (rat); experiment: ITC
T3 chain: T1 chain with F104Q, F137Q

[5] = target: T4, AnkB 28–873 (MBD + full AI-c) (human, UniProt Q01484-2 28-873); experiment: ITC
T4 chain: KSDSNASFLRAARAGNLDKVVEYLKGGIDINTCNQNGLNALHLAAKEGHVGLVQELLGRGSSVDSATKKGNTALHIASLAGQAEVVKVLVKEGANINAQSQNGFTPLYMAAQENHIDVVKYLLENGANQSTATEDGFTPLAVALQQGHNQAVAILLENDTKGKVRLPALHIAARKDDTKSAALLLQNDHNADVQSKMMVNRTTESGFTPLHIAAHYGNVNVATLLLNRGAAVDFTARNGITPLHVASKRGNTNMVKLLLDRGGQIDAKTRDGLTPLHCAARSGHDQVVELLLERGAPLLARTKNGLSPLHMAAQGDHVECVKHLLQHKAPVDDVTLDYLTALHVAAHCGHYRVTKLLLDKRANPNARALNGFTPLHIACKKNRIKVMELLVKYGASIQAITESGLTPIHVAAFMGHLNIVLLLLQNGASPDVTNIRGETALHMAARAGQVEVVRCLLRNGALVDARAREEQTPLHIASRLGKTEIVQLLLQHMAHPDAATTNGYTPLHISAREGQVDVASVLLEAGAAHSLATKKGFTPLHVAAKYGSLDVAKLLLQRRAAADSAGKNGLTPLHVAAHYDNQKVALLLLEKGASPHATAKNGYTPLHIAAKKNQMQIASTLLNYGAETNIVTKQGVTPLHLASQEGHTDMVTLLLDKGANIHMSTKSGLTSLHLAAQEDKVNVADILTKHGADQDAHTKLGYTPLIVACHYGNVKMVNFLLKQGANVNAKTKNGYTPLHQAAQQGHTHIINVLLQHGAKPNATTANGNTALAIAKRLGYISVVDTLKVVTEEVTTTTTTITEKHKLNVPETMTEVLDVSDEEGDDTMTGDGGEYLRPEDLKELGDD

AnkB R1-14 = target: T5, AnkB R1-14 (Homo sapiens); experiment: ITC
T5 chain: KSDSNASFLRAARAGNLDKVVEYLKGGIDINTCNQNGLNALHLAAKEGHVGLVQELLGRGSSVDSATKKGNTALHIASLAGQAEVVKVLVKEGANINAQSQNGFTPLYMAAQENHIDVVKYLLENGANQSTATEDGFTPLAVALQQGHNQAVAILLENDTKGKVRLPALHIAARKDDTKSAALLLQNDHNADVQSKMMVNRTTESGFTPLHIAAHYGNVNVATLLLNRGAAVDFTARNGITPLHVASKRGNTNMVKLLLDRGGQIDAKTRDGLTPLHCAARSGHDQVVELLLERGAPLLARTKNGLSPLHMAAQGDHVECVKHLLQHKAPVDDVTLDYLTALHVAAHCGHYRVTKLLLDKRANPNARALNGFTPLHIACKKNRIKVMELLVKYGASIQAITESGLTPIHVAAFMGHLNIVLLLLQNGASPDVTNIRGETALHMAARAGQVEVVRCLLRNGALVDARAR

AnkB R6-24 = target: T6, AnkB R6-24 (Homo sapiens); experiment: ITC
T6 chain: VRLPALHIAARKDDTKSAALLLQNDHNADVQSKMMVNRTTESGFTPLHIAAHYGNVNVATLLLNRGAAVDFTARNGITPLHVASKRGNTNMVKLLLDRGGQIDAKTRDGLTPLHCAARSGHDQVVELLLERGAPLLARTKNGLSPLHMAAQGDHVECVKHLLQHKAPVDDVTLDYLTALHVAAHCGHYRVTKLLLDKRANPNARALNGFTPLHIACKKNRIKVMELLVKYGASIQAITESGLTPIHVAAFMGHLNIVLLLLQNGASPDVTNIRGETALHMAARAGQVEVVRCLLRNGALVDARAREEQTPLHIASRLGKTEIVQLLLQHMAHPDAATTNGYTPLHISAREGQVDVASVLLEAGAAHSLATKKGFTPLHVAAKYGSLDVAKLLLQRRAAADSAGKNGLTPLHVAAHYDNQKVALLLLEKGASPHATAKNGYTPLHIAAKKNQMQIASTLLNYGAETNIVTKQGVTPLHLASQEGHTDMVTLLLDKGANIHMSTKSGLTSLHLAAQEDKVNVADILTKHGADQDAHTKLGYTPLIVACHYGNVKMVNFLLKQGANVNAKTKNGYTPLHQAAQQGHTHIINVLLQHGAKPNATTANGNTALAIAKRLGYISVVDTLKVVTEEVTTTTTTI

B1: AnkG long linker (aa 837–920; AI-c + AI-b) (domain or fragment)
chain: TEKHKMNVPETMNEVLDMSDDEVGKASAPEKLSDGEYISDGEEGEDAITGDTDKYLGPQDLKELGDDSLPAEGYVGFSLGARSA
[1]
  Kd: ~3000 nM

B2: AnkG linker ΔAI-c (aa 861–920) (domain or fragment)
chain: KASAPEKLSDGEYISDGEEGEDAITGDTDKYLGPQDLKELGDDSLPAEGYVGFSLGARSA
[2]
  Kd: 3900 nM
[3]
  Kd: 1600 nM
[4]
  Kd: 2600 nM

B3: AnkB entire linker (aa 828–965) (domain or fragment)
chain: TEKHKLNVPETMTEVLDVSDEEGDDTMTGDGGEYLRPEDLKELGDDSLPSSQFLDGMNYLRYSLEGGRSDSLRSFSSDRSHTLSHASYLRDSAVMDDSVVIPSHQVSTLAKEAERNSYRLSWGTENLDNVALSSSPIH
[5]
  Kd: 2200 nM
AnkB R1-14
  Kd: 4100 nM
AnkB R6-24
  Kd: 4700 nM
